# According to article PMC4022466, “Spermatid Cyst Polarization in Drosophila Depends upon apkc and the CPEB Family Translational Regulator orb2”:
# T1: Orb2-RRM (GST-Orb2 C-terminus) (UniProt Q9VSR3 447-704)
# T1 sequence: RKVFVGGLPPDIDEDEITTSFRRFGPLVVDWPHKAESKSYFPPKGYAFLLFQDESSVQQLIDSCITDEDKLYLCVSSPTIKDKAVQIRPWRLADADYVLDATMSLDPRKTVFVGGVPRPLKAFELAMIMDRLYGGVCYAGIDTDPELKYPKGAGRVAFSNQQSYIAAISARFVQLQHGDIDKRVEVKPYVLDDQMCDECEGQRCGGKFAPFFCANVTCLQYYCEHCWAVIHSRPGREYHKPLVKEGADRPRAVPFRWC
# Biological target: T1, Orb2-RRM (GST-Orb2 C-terminus)
# Assay: competition; 100-400 fold excess cold against RA-GS probe; 25 mM Tris pH 7.5, 10 mM EDTA (rest of buffer and temperature not in the material)
# Details: protein: recombinant; tags: GST
binder,measurement,value
ACUUUUGUUUUUAAUGCAUUCCAC (ssRNA) [Comp-CPE (competitor A)],binding result,binds
